Three proteins from publication PMC3853298, “The Concave Face of Decorin Mediates Reversible Dimerization and Collagen Binding*” (The Journal of Biological Chemistry, 2013) can be followed below.

Series [1] concerns the molecule itself. Put plainly: AUC; sedimentation velocity, 20 °C, 40,000 rpm, PBS, 0.028 (0.77 uM) to 3.4 mg/ml (94 uM); c(s) peaks of monomer and dimer integrated and fitted to a monomer-dimer equilibrium; dimer to monomers.
Series [2] concerns the molecule itself. Kind of series: SEC-MALS; injected at 3 mg/ml (83 uM) onto Superdex 200 10/30, TBS (20 mM Tris, 150 mM NaCl, pH 7.5), 0.2 ml/min; three-detector method for the polypeptide mass.

Usually Kd stands for the equilibrium constant for the complex coming apart. One may read the stoichiometry N as the number of molecules, sites or subunits per partner or assembly.

B1: mouse decorin core protein, wild type (residues 45-354) (domain or fragment)
chain: APLALISMCPYRCQCHLRVVQCSDLGLDKVPWDFPPDTTLLDLQNNKITEIKEGAFKNLKDLHTLILVNNKISKISPEAFKPLVKLERLYLSKNQLKELPEKMPRTLQELRVHENEITKLRKSDFNGLNNVLVIELGGNPLKNSGIENGAFQGLKSLSYIRISDTNITAIPQGLPTSLTEVHLDGNKITKVDAPSLKGLINLSKLGLSFNSITVMENGSLANVPHLRELHLDNNKLLRVPAGLAQHKYIQVVYLHNNNISAVGQNDFCRAGHPSRKASYSAVSLYGNPVRYWEIFPNTFRCVYVRSAIQLGNYKAAA
modifications: N-linked glycans (four consensus sites for N-linked glycosylation)
notes: vector-encoded residues left at the N-terminus after cleavage of the BM-40 signal peptide; decorin, mouse, UniProt P28654, residues 45-354; the numbering includes the signal peptide; corresponds to the ordered residues of the bovine decorin core crystal structure; Core protein without the glycosaminoglycan attachment region; exists in a monomer-dimer equilibrium; also called WT; wild-type mouse …
As for B1, the Kd in series [1] was 1370 ± 300 nM. Moreover, the “stoichiometry N” value in series [2] came to 2.

B2: mouse decorin core protein Y51A/R52A/Q54A (residues 45-354) (domain or fragment)
chain: APLALISMCPAACACHLRVVQCSDLGLDKVPWDFPPDTTLLDLQNNKITEIKEGAFKNLKDLHTLILVNNKISKISPEAFKPLVKLERLYLSKNQLKELPEKMPRTLQELRVHENEITKLRKSDFNGLNNVLVIELGGNPLKNSGIENGAFQGLKSLSYIRISDTNITAIPQGLPTSLTEVHLDGNKITKVDAPSLKGLINLSKLGLSFNSITVMENGSLANVPHLRELHLDNNKLLRVPAGLAQHKYIQVVYLHNNNISAVGQNDFCRAGHPSRKASYSAVSLYGNPVRYWEIFPNTFRCVYVRSAIQLGNYKAAA
modifications: N-linked glycans (four consensus sites for N-linked glycosylation)
notes: vector-encoded residues left at the N-terminus after cleavage of the BM-40 signal peptide; decorin, mouse, UniProt P28654, residues 45-354; the numbering includes the signal peptide; triple mutation in the N-terminal cap; also called Y51A/R52A/Q54 mutant; source: HEK293 c18 cells, episomally transfected (pCEP-Pu), secreted; purified from conditioned medium (HisTrap, Superdex 200); not shown: …
Take B2: the Kd in series [1] was 2300 ± 800 nM. Besides, the “stoichiometry N” value in series [2] stood at 2.

B3: mouse decorin core protein R151E (residues 45-354) (domain or fragment)
chain: APLALISMCPYRCQCHLRVVQCSDLGLDKVPWDFPPDTTLLDLQNNKITEIKEGAFKNLKDLHTLILVNNKISKISPEAFKPLVKLERLYLSKNQLKELPEKMPRTLQELEVHENEITKLRKSDFNGLNNVLVIELGGNPLKNSGIENGAFQGLKSLSYIRISDTNITAIPQGLPTSLTEVHLDGNKITKVDAPSLKGLINLSKLGLSFNSITVMENGSLANVPHLRELHLDNNKLLRVPAGLAQHKYIQVVYLHNNNISAVGQNDFCRAGHPSRKASYSAVSLYGNPVRYWEIFPNTFRCVYVRSAIQLGNYKAAA
modifications: N-linked glycans (four consensus sites for N-linked glycosylation)
notes: vector-encoded residues left at the N-terminus after cleavage of the BM-40 signal peptide; decorin, mouse, UniProt P28654, residues 45-354; the numbering includes the signal peptide; R151E reverses a charge in LRR5; source: HEK293 c18 cells, episomally transfected (pCEP-Pu), secreted; purified from conditioned medium (HisTrap, Superdex 200); not shown: His6, C-terminal, kept
Consider B3, for which the Kd in series [1] came out at 470 ± 90 nM. In series [2], the “stoichiometry N” value was determined as 2.
